Assay results: patent publication US20200062856A1 (XDCEXPLORER SHANGHAI, published 2020)
Changes are numbered by the printed parent chain. Read-outs that look alike come from different tables or passages of the source.

What was measured:
[1] = biological target: T1, human TPBG protein, full-length, on the cell surface (human, UniProt Q13641 32-420); assay: cell-based or functional assay
T1 sequence (looked up): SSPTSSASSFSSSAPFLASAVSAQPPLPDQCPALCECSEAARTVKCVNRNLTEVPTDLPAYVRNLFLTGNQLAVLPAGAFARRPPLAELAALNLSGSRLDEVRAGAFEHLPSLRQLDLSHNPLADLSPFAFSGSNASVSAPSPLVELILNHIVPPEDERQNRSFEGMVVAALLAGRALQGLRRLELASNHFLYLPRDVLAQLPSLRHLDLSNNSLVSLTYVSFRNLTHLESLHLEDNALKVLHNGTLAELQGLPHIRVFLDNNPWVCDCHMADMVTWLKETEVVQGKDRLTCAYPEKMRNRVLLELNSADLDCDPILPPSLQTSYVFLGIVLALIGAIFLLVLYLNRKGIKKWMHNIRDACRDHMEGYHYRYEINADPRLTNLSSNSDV

[2] = biological target: T1, human TPBG protein, full-length, on the …; assay: cell-based or functional assay; remark: listed apart in the source

B1: Chimeric Antibody 28D4-MMAF (antibody, V domains shown)
VH: DVQLVESGGGLVRPGGSLKLSCAASGFTFSNYVMSWARQSPEKRLEWVAEISTGGSHTYYSDTVTGRFTISRDNAKKALYLEMSSLRSEDTAIYYCIMFYYGSSYSMDYWGQGTSVTVSS
VL: DIQMTQSTSSLSASLGDRITISCRASQDIRNYLNWYQQKPDGTVKLLIYHTSRLHSGVPSRFSGSGSGTDYSLTISNLEQEDIATYFCQQGDTLPLTFGAGTRLELK
modifications: MC-MMAF on cysteines reduced with TCEP (sites not given), DAR 3.0-5.0 per antibody
IC50 of cell killing, NCI-H1568 cells (CellTiter-Glo, 5 days) [1]: 0.091 nM

B2: Humanized Antibody 28D4-3-MMAF (antibody, V domains shown)
VH: EVQLVESGGGLVKPGGSLRLSCAASGFTFSNYVMSWIRQAPGKGLEWVAEISTGGSHTYYSDTVTGRFTISRDNAKKSLYLQMNSLRAEDTAVYYCIMFYYGSSYSMDYWGQGTTVTVSS
VL: DIQMTQSPSSLSASVGDRVTITCRASQDIRNYLNWYQQKPGKAPKLLIYHTSRLHSGVPSRFSGSGSGTDFTFTISSLQPEDIATYYCQQGDTLPLTFGQGTRLEIK
modifications: MC-MMAF on cysteines reduced with TCEP (sites not given), DAR 3.0-5.0 per antibody
IC50 of cell killing, NCI-H1568 cells (CellTiter-Glo, 5 days) [1]: 0.061 nM

B3: Humanized Antibody 28D4-7-MMAF (antibody, V domains shown)
VH: B2 VH
VL: B2 VL with F71Y
modifications: MC-MMAF on cysteines reduced with TCEP (sites not given), DAR 3.0-5.0 per antibody
IC50 of cell killing, NCI-H1568 cells (CellTiter-Glo, 5 days) [1]: 0.066 nM

B4: Humanized Antibody 28D4-4-MMAF (antibody, V domains shown)
VH: B2 VH with I37A, G44R
VL: B2 VL
modifications: MC-MMAF on cysteines reduced with TCEP (sites not given), DAR 3.0-5.0 per antibody
IC50 of cell killing, NCI-H1568 cells (CellTiter-Glo, 5 days) [1]: 0.074 nM

B5: Humanized Antibody 12B12-12-MMAE (antibody, V domains shown)
VH: EVQLVESGGGLVQPGGSLRLSCAASGFTFSNFGMHWVRQAPGKGLEWVSYISSGSTSFYYADTVKGRFTISRDNAKNSLYLQMNSLRDEDTAVYYCARTNSLLRGFFDAWGQGTTVTVSS
VL: DIVLTQTPLSLSVTPGQPASISCRASQSVSSSSYTYLHWYLQKPGQPPQLLIKSASNLESGVPDRFSGSGSGTDFTLKISRVEAEDVGVYYCQHSWEIPLTFGQGTKLEIK
modifications: MC-VC-PAB-MMAE on cysteines reduced with TCEP (sites not given), DAR about 3.0-5.0 per antibody
IC50 of cell killing, MDA-MB-468 cells (CellTiter-Glo, 5 days) [2]: 0.27 nM
IC50 of cell killing, NCI-H1568 cells (CellTiter-Glo, 5 days) [2]: 0.43 nM
IC50 of cell killing, NCI-H1975 cells (CellTiter-Glo, 5 days) [2]: 1.2 nM

B6: Humanized Antibody 12B12-12-DM1 (antibody, V domains shown)
VH: B5 VH
VL: B5 VL
modifications: SMCC-DM1 (sites not given), DAR about 3.0-5.0 per antibody
IC50 of cell killing, MDA-MB-468 cells (CellTiter-Glo, 5 days) [2]: 0.44 nM
IC50 of cell killing, NCI-H1568 cells (CellTiter-Glo, 5 days) [2]: 0.38 nM
IC50 of cell killing, NCI-H1975 cells (CellTiter-Glo, 5 days) [2]: 5.93 nM
